Key:
Experiment in all cases: pull-down
[1] = target: hnRNP-A1 N-terminal RRMs fragment (a.a. 1-188) (UniProt P09651-2 1-188)
[2] = target: GST fusion with DNA-PKcs fragment H2 (a.a. 3747-4097) (human, UniProt P78527 3747-4097)
[3] = target: GST fusion with the C-terminal DNA-PKcs fragment H (a.a. 3747-4128) (human, UniProt P78527 3747-4128)

GST fusion with DNA-PKcs fragment H2 (a.a. 3747-4097), sequence (P78527 3747-4097): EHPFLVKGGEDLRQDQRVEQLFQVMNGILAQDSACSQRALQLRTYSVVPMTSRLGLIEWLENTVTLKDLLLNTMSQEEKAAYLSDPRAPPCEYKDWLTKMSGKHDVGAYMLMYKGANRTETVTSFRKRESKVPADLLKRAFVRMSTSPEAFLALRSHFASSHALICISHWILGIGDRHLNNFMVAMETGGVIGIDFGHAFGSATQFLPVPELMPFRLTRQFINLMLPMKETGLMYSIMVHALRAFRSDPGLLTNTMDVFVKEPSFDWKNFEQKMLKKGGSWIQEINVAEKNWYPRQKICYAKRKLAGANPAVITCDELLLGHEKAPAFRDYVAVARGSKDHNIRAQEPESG

Row | binding result [1] | binding result [2] | binding result [3] | Binder
1 | binds | – | – | GST fusion with DNA-PKcs fragment H3 (a.a. 4036-4128) (domain or fragment, human, UniProt P78527 4036-4128, looked up) KNWYPRQKICYAKRKLAGANPAVITCDELLLGHEKAPAFRDYVAVARGSKDHNIRAQEPESGLSEETQVKCLMDQATDPNILGRTWEGWEPWM
2 | – | binds | binds | His-tagged full-length hnRNP-A1 (recombinant, wild type) (natural protein, UniProt P09651-2 1-320, looked up) MSKSESPKEPEQLRKLFIGGLSFETTDESLRSHFEQWGTLTDCVVMRDPNTKRSRGFGFVTYATVEEVDAAMNARPHKVDGRVVEPKRAVSREDSQRPGAHLTVKKIFVGGIKEDTEEHHLRDYFEQYGKIEVIEIMTDRGSGKKRGFAFVTFDDHDSVDKIVIQKYHTVNGHNCEVRKALSKQEMASASSSQRGRSGSGNFGGGRGGGFGGNDNFGRGGNFSGRGGFGGSRGGGGYGGSGDGYNGFGNDGSNFGGGGSYNDFGNYNNQSSNFGPMKGGNFGGRSSGPYGGGGQYFAKPRNQGGYGGSSSSSSYGSGRRF

Source: paper PMC4499152 (Nucleic Acids Research, 2015)
